Source: patent US20210198647A1 (TEXAS TECH UNIVERSITY SYSTEM, published 2021)
Ends that are not written are not given here.

Assays:
Assay in all cases: cell-based or functional assay
[1] = molecular target: Neurolysin (Nln) as used for the A50 and Amax values of Tables 2 and 5
[2] = molecular target: recombinant human neprilysin (R & D systems, product number 1182-ZNC) (human, UniProt P08473 52-750)
[3] = molecular target: recombinant human ACE2 (R & D systems, product number 933-ZN) (human, UniProt Q9BYF1 18-740)
recombinant human ACE2 (R & D systems, product number 933-ZN), sequence (Q9BYF1 18-740 limits assumed): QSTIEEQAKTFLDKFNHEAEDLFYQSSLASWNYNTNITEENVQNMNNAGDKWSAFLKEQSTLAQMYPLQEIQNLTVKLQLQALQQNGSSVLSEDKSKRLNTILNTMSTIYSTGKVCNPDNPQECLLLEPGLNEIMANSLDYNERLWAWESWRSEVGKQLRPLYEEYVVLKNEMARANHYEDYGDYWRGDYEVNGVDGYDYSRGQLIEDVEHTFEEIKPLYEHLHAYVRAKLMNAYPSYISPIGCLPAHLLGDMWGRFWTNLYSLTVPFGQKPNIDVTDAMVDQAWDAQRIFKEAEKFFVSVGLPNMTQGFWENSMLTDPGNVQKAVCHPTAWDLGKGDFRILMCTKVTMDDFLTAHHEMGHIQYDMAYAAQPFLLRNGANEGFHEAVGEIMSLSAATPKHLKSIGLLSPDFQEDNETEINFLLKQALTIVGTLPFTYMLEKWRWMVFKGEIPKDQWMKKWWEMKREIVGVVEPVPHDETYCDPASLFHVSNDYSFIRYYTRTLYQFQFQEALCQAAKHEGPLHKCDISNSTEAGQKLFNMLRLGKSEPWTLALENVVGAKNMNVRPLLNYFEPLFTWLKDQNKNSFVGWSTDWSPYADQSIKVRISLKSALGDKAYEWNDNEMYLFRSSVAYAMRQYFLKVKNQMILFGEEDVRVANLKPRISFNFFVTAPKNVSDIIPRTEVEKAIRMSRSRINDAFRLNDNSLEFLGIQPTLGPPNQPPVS

[4] = molecular target: recombinant human angiotensin converting enzyme (R & D systems, product number 929-ZN) (human, UniProt P12821 30-1261)
recombinant human angiotensin converting enzyme (R & D systems, product number 929-ZN), sequence (P12821 30-1261 limits assumed): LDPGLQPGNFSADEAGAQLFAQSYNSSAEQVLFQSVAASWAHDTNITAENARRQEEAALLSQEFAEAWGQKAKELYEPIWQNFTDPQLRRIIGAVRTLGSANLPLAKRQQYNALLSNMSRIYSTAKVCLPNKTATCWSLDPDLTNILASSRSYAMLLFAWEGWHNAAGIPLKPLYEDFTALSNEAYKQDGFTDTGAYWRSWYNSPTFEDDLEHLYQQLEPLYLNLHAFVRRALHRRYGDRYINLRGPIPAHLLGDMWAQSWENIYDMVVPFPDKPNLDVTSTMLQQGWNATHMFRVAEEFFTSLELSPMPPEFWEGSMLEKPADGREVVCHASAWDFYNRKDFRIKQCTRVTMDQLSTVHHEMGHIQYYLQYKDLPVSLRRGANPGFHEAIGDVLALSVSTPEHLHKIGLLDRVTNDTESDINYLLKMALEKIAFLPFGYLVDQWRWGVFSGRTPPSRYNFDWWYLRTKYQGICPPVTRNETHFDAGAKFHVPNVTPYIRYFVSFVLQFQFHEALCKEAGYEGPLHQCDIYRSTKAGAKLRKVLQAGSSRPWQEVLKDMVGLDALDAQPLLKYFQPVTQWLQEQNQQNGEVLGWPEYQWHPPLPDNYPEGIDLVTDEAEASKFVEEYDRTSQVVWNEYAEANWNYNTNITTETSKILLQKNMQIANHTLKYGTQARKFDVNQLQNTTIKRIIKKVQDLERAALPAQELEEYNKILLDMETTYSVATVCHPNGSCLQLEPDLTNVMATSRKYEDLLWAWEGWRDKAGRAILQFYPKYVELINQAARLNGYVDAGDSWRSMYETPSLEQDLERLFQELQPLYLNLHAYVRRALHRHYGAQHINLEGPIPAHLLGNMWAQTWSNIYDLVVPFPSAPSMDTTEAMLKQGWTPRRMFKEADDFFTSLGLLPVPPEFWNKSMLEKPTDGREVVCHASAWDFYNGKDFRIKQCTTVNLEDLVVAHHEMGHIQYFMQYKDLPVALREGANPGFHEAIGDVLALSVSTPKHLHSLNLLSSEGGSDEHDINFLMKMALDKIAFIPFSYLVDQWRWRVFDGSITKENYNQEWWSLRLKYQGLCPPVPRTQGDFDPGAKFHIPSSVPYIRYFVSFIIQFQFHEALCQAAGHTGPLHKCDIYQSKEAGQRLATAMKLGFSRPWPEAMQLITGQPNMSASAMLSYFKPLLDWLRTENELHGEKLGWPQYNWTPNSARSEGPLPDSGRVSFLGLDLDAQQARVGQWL

[5] = molecular target: recombinant human thimet oligopeptidase (R & D systems, product number 3439-ZN) (human, UniProt P52888 1-689, limits assumed)
recombinant human thimet oligopeptidase (R & D systems, product number 3439-ZN), sequence (P52888 whole entry): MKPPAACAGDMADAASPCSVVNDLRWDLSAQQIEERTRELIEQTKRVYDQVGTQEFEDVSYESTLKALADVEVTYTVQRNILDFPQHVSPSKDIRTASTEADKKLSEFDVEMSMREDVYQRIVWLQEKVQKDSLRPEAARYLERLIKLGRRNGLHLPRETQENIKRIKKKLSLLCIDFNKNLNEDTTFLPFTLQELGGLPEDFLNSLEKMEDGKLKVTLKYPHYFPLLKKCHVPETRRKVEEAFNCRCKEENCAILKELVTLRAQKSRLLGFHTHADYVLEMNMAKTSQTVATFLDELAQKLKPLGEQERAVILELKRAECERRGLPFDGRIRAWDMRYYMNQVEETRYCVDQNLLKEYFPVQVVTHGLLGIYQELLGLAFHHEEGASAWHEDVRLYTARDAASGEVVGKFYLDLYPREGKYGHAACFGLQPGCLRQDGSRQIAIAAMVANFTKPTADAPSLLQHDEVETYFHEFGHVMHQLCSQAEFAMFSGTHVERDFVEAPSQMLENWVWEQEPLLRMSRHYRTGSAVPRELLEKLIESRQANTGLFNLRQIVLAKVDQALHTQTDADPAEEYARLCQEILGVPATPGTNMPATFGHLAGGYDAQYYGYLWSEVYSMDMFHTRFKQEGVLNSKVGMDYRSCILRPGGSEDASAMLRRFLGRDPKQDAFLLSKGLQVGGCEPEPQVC

recombinant human neprilysin (R & D systems, product number 1182-ZNC), sequence (P08473 52-750 limits assumed): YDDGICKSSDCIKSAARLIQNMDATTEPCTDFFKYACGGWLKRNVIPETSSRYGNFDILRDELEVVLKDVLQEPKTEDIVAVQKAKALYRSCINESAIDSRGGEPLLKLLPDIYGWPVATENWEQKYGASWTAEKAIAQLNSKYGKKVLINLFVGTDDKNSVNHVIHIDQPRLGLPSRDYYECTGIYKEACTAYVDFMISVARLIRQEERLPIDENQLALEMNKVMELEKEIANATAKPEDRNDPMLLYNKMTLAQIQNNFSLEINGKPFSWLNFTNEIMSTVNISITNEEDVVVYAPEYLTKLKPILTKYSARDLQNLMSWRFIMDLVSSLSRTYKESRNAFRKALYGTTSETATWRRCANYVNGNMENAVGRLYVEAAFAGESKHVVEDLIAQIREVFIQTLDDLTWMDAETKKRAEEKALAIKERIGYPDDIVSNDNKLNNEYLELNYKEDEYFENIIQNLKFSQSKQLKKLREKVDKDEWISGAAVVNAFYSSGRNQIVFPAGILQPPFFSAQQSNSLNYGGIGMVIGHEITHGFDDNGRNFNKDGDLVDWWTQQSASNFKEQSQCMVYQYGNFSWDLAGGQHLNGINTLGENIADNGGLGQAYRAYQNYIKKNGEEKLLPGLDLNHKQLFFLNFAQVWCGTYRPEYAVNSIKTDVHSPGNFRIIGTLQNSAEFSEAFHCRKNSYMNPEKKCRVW

Binder: HW [His-Trp]
- Amax [1]: 440%

Binder: His-His (also: mixture of D- and L-His at both positions) [NlnA#2, NSC 523374, D,L-histidyl-D,L-histidine]
- inhibition of activity at 300 µM (quenched fluorescent substrate hydrolysis) [2]: 1.6%
- inhibition of activity at 300 µM (quenched fluorescent substrate hydrolysis) [3]: 10.9%
- inhibition of activity at 300 µM (quenched fluorescent substrate hydrolysis) [4]: 12.2%
- inhibition of activity at 300 µM (quenched fluorescent substrate hydrolysis) [5]: 15.6%

Binder: HP [His-Pro]
- Amax [1]: 502%

Binder: HF [His-Phe]
- A50 [1]: 130 µM
- Amax [1]: 573%

Binder: HY [NlnA#1, NSC 374121, L-histidyl-L-tyrosine]
- Amax [1]: 467%
- inhibition of activity at 300 µM (quenched fluorescent substrate hydrolysis) [2]: 2.9%
- inhibition of activity at 300 µM (quenched fluorescent substrate hydrolysis) [3]: 13.4%
- inhibition of activity at 300 µM (quenched fluorescent substrate hydrolysis) [4]: 22.6%
- inhibition of activity at 300 µM (quenched fluorescent substrate hydrolysis) [5]: 25.9%
